Where a chain is given by its changes, count along the chain named.
B1: KB_C07 (scFv, V domains shown)
VH: EVQLVESGGGLVRPGGSLRLSCAASGFTFSSYAMSWVRQAPGKGLEWVSAISGSGGSTYYADSVKGRFTISRDNTKNSLYLQMTSLRADDTAFYYCVKDFGPGYGTGWFDYWGPGTLVTVSS
VL: AVNWYQQLPGKAPKLLIYAAVGCPRILMRCKQDSDCLAGCVCGPNGFCGSASGVSDRFSGSKSGTSASLAISGLRSEDEADYYCASWDDSLRGYVFGTGTKVTVLG
B2: KB_A11 (scFv, V domains shown)
VH: B1 VH
VL: YLNWYQQKPGKAPKLLIYAAEICPRILMRCKQDSDCLAGCVCGPNGFCGPSSGIPARFSGSGYGTDFTLTINNIESEDAAYYFCLQHDNFPYTFGQGTKVEIKR
B3: KB_B01 (scFv, V domains shown)
VH: B1 VH
VL: B1 VL with V21A, S50T, A51R, S86A, G93A, V102L
B4: KB_A10 (scFv, V domains shown)
VH: B1 VH
VL: AVNWYQQLPGKAPKLLIYAAGGCPRILMRCKQDSDCLAGCVCGPNGFCGSNSGVPDRFSGSKSGNTASLTISGLQSEDEADYYCAAWDDSLSGVVFGGGTQLTVLG
B5: KB_A01 (scFv, V domains shown)
VH: B1 VH
VL: YLNWYQQKPGKAPKLLIYAAEVCPRILMRCKQDSDCLAGCVCGPNGFCGGTSGVPSRFSGSRSGTEFTLTISSLQPEDFATYYCQKVDDYPLTFGGGTKVEIKR
B6: KB_A05 (scFv, V domains shown)
VH: B1 VH
VL: AVNWYQQLPGKAPKLLIYAADKCPRILMRCKQDSDCLAGCVCGPNGFCGGGSGIPERFSGSKSGTSASLAISGLRSEDEADYYCATWDDNLNGVVFGGGTKLTVLG
B7: KB_A06 (scFv, V domains shown)
VH: B1 VH
VL: AVNWYQQLPGKAPKLLIYAAVRCPRILMRCKQDSDCLAGCVCGPNGFCGTPSGIPERFSGSIDRSTNSASLTISGLKTEDEADYYCQSYDSSNLNWVFGGGTKLTVLG
B8: KB_A09 (scFv, V domains shown)
VH: B1 VH
VL: AVNWYQQLPGKAPKLLIYAAERCPRILMRCKQDSDCLAGCVCGPNGFCGTPSGVPDRFSGSIDTFSNSASLTISGLKTEDEADYYCQSYDSSHHWVFGGGTKLTVLG
B9: KB_C09 (scFv, V domains shown)
VH: B1 VH
VL: B8 VL with E21G, T50G, P51G, T64S, F65S, K77R, T78A, H93N
B10: KB_C08 (scFv, V domains shown)
VH: B1 VH
VL: B6 VL with D21A, K22V, G50T, G51R, S68F, T86A, N90S, N92S
B11: KB_B02 (scFv, V domains shown)
VH: B1 VH
VL: B4 VL with G21V, S50T, N51G, V54I, D56E, S76A, A80G, V94P, Q101K
B12: KB_A02 (scFv, V domains shown)
VH: B1 VH
VL: AVNWYQQLPGKAPKLLIYAAAKCPRILMRCKQDSDCLAGCVCGPNGFCGGASGVSDRFSGSIDSSSNSASLTISGLKPEDEGDYYCQSYDSSNRWVFGGGTKVTVLG
B13: KB_A03 (scFv, V domains shown)
VH: B1 VH
VL: AVNWYQQLPGKAPKLLINAADRCPRILMRCKQDSDCLAGCVCGPNGFCGTNSGVPDRFSGSSSGNTASLTITGAQAEDEADYYCNSRDSSGNNWVFGGGTKVTVLG
B14: KB_A01 Fab (Fab, V domains shown)
VH: B1 VH
VL: B5 VL
B15: KB_C07 Fab (Fab, V domains shown)
VH: B1 VH
VL: B1 VL
B16: KB_C08 Fab (Fab, V domains shown)
VH: B1 VH
VL: B6 VL with D21A, K22V, G50T, G51R, S68F, T86A, N90S, N92S
B17: KB_B01 Fab (Fab, V domains shown)
VH: B1 VH
VL: B1 VL with V21A, S50T, A51R, S86A, G93A, V102L
B18: KB_A02 Fab (Fab, V domains shown)
VH: B1 VH
VL: B12 VL
B19: KB_A06 Fab (Fab, V domains shown)
VH: B1 VH
VL: B7 VL
B20: KB_A10 Fab (Fab, V domains shown)
VH: B1 VH
VL: B4 VL
B21: KB_B02 Fab (Fab, V domains shown)
VH: B1 VH
VL: B4 VL with G21V, S50T, N51G, V54I, D56E, S76A, A80G, V94P, Q101K
B22: KB_A09 Fab (Fab, V domains shown)
VH: B1 VH
VL: B8 VL
B23: KB_A11 Fab (Fab, V domains shown)
VH: B1 VH
VL: B2 VL
B24: KB_C10 Fab (Fab, V domains shown)
VH: B1 VH
VL: AVNWYQQLPGKAPKLLIYAAGPCPRILMRCKQDSDCLAGCVCGPNGFCGADSGVSDRFSGSKSGTSASLAITGLQAEDEGDYYCAAWDDSLNGLVFGGGTKVTVLG
B25: KB_C09 Fab (Fab, V domains shown)
VH: B1 VH
VL: B8 VL with E21G, T50G, P51G, T64S, F65S, K77R, T78A, H93N
B26: KB_A07 Fab (Fab, V domains shown)
VH: B1 VH
VL: YLNWYQQKPGKAPKLLIYAAGVCPRILMRCKQDSDCLAGCVCGPNGFCGSRSGVPSRFSGSGSGTDFTLTISSLQPEDFATYYCQQGASPPYTFGQGTKVEIKR

target: trypsin; experiment: monoclonal phage TRF ELISA

Binder	trypsin binding signal (FU)
B1	43300 FU
B2	16400 FU
B3	57700 FU
B4	38800 FU
B5	20200 FU
B6	121000 FU
B7	24400 FU
B8	57700 FU
B9	89400 FU
B10	76800 FU
B11	116000 FU
B12	183000 FU
B13	28700 FU

target: trypsin; experiment: phage TRF ELISA; GlyAla (Pro3Gly, Arg4Ala) mutant against the clone

Binder	% reduction in binding signal
B1	100%
B2	100%
B3	95%
B4	100%
B5	93%
B6	100%
B7	100%
B8	100%
B9	100%
B10	100%
B11	98%
B12	96%
B13	90%

target: trypsin; experiment: TRF ELISA, Fab on biotinylated trypsin

Binder	TRF signal for 0.6 ug/mL Fab	TRF signal for 2.4 ug/mL Fab	TRF signal for 10 ug/mL Fab
B14	2390	16600	55600
B15	153000	247000	276000
B16	51100	131000	183000
B17	54800	153000	257000
B18	93800	221000	255000
B19	108000	212000	242000
B20	14600	71900	68700
B21	2340	15900	56600
B22	21000	84100	161000
B23	48900	141000	212000
B24	41700	146000	238000
B25	46800	205000	289000
B26	108000	201000	226000

Reference: US20260043020A1, “BINDING MEMBERS WITH ALTERED DIVERSITY SCAFFOLD DOMAINS” (priority 2016, published 2026)
